Tests used:
crystal structure = target: the molecule itself; assay: crystal structure
[1] = target: T1, alpha subunit of mature G172D Flavobacterium glycosylasparaginase (Flavobacterium, UniProt Q47898 46-196); assay: crystal structure
T1 sequence (looked up): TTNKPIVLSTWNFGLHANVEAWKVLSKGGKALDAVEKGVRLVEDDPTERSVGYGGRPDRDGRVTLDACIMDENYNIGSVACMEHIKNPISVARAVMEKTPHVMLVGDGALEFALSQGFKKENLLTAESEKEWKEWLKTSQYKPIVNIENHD

B1: mature form of the G172D mutant of Flavobacterium glycosylasparaginase (one alpha and one beta chain) (complex)
chain 1: T1 sequence (looked up)
chain 2: TIGMIALDAQGNLSGACTTSDMAYKMHGRVGDSPIIGAGLFVDNEIGAATATGHGEEVIRTVGTHLVVELMNQGRTPQQACKEAVERIVKIVNRRGKNLKDIQVGFIALNKKGEYGAYCIQDGFNFAVHDQKGNRLETPGFALK
B1: binds (crystal structure).

B2: beta subunit of mature G172D Flavobacterium glycosylasparaginase (domain or fragment, UniProt Q47898 197-340, looked up)
chain: B1 chain 2
B2: binds [1].

Source: publication PMC5504686 (Molecular genetics and metabolism, 2017)
